# B1: library; numbered along this chain (parent)
# chain: MAAAAAAAAEQQSSNGPVKKSMREKAVERRSVNKEHNSNFKAGYIPIDEDRLHKTGLRGRKGNLAICVIILLFILAVINLIITLVIWAVIRIGPNGCDSMEFHESGLLRFKQVSDMGVIHPLYKSTVGGRRNENLVITGNNQPIVFQQGTTKLSVENNKTSITSDIGMQFFDPRTQNILFSTDYETHEFHLPSGVKSLNVQKASTERITSNATSDLNIKVDGRAIVRGNEGVFIMGKTIEFHMGGNMELKAENSIILNGSVMVSTTRLPSSSSGDQLGSGDWVRYKLCMCADGTLFKVQVTSQNMGCQISDNPCGNTH
# Variants of: B1
# Assay: SGCB cell-surface expression functional score (HA stain, bin4 vs bin1, normalised to synonymous) (log10 ratio); higher = more cell-surface SGCB (functional)
# Outline: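 The functional score is a log ratio of variant frequency in the highest versus the lowest intensity bin, expressed as a median over codons and duplicate transductions. Codon-saturation libraries of HA-tagged, YFP-fused human beta-sarcoglycan were transduced by lentivirus at MOI <0.1 into HEK293 cells stably expressing alpha-, gamma- and delta-sarcoglycan, and the cells were stained on ice with Alexa Fluor 647 anti-HA, fixed and sorted into four 5% intensity bins before amplicon sequencing. Synonymous variants were scaled to mean 0, SD 0.5 within each section.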
row,Variant,SGCB cell-surface expression functional score (log10)
1,T163I,0.32
2,T163V,0.25
3,T163F,-0.27
4,T163G,-1.5
5,T163M,-1.06
6,T163R,-0.05
7,T163A,-0.32
8,T163Q,0.21
9,T163C,-0.72
10,T163S,-1.01
11,T163E,-0.38
12,T163D,-1.08
13,T163P,-1.3
14,T163H,-0.2
15,T163Y,0.58
16,T163L,-0.56
17,T163K,-0.3
18,Q169H,-0.86
19,Q169D,-0.37
20,Q169F,-1.89
21,Q169C,-1.24
22,Q169G,-1.16
23,Q169E,0.46
24,Q169A,-1.13

row,Variant,SGCB cell-surface expression functional score (log10)
1,T160P,-1.28
2,T160I,0.64
3,T160W,-0.95
4,T160N,-0.8
5,T160K,-2.03
6,T160M,-1.02
7,T160Y,-1.13
8,T160H,-0.01
9,T160L,0.17
10,T160R,-1.29
11,T160Q,-1.26
12,T160S,-0.5
13,T160V,0.03
14,D165N,-0.35
15,D165G,-0.11
16,D165V,0.5
17,D165I,0.19
18,D165P,0.58
19,D165Y,-0.38
20,D165H,0.61
21,D165K,-0.75
22,D165S,-0.01
23,D165E,0.02
24,D165L,-0.58

row,Variant,SGCB cell-surface expression functional score (log10)
1,D165T,0.73
2,D165F,0.07
3,D165R,0.2
4,D165A,0.17
5,D165Q,-1.09
6,I166T,0.36
7,I166F,0.57
8,I166E,0.76
9,I166R,-0.29
10,I166A,-0.49
11,I166G,-0.41
12,I166W,-2.63
13,I166S,-0.76
14,I166L,-0.38
15,I166D,-1.32
16,I166V,0.13
17,I166K,-0.2
18,I166N,-0.78
19,I166P,-1.11
20,I166H,-0.1
21,I166M,-0.16
22,I166Q,-0.21
23,I166Y,0.18
24,I166C,0.54

row,Variant,SGCB cell-surface expression functional score (log10)
1,G167F,-1.3
2,G167R,-1.14
3,G167L,-0.9
4,G167E,-1.93
5,G167V,-0.99
6,G167Q,-0.39
7,G167W,-1.16
8,G167K,-0.34
9,G167P,-1.01
10,G167M,-1.61
11,G167N,-1.11
12,G167C,-2.06
13,G167T,-1.32
14,G167A,-0.48
15,G167I,-2.1
16,G167H,-0.66
17,G167S,-1.64
18,G167D,-1.19
19,G167Y,-1.42
20,I162M,0.23
21,I162E,-0.89
22,I162K,-1.11
23,I162C,-1.23
24,I162N,-0.83

row,Variant,SGCB cell-surface expression functional score (log10)
1,I162H,-1.02
2,I162F,-0.81
3,I162D,-1.31
4,I162P,-1.25
5,I162R,-1.34
6,I162L,-0.6
7,I162V,-0.49
8,I162Y,-1.43
9,I162T,-1.07
10,I162Q,-0.98
11,I162A,-0.52
12,I162G,-1.34
13,I162W,0.05
14,I162S,-1.09
15,S164P,-1.87
16,S164R,-0.91
17,S164C,-0.79
18,S164D,0.11
19,S164N,-0.99
20,S164V,-0.34
21,S164F,-1.08
22,S164Y,-1.05
23,S164Q,-0.96
24,S164E,-0.83

row,Variant,SGCB cell-surface expression functional score (log10)
1,S164G,-0.13
2,S164T,-0.69
3,S164I,-1.26
4,S164M,-2.05
5,S164A,-0.39
6,S164L,-1.91
7,S164K,-0.97
8,S164H,-1.56
9,S164W,-2.58
10,S161G,0.01
11,S161I,-0.06
12,S161H,-0.26
13,S161V,-0.12
14,S161L,0.12
15,S161M,-0.34
16,S161A,0.29
17,S161T,0.3
18,S161C,-0.11
19,S161K,-0.33
20,S161W,-0.98
21,S161Y,-0.18
22,S161D,-0.8
23,S161P,-1.15
24,S161N,-0.84

row,Variant,SGCB cell-surface expression functional score (log10)
1,S161Q,0.14
2,S161E,0.42
3,S161R,0.02
4,S161F,-0.36
5,M168D,-1.62
6,M168C,-0.84
7,M168T,-1.24
8,M168H,-1.85
9,M168R,-0.79
10,M168Q,-1.74
11,M168W,-2.06
12,M168F,-0.59
13,M168G,-1.9
14,M168K,-0.76
15,M168P,-0.24
16,M168L,0.01
17,M168V,-0.11
18,M168I,-0.24
19,M168N,-2.1
20,M168A,-1.55
21,M168E,-0.66
22,M168S,-1.21
23,M168Y,-1.79

# Source: the supplement of paper PMC10266784
